Laboratory results as given in PMC7020240.

Target: C-FLuc-MESA MEC construct (wild type) (P. falciparum)
Experiment: split reporter

Substance: N-FLuc-ANK1 fragment 3 (amino acids 823 - 1375) (domain or fragment)
- fold increase of relative luciferase activity: 200 fold
